Data on four molecules can be found in article PMC11247618 (Immunity, 2024).

To fix the notation:
B1: hcab40 Fab (Fab, V domains shown)
VH: QVQLQQWGAGLLKPSESLSLTCVVYGGSFSGYYWSWIRQPPGKGLEWIGEINPTGSTNYNPSLNSRVTISVDRSKNHLSLKLSSVTAADTAVYFCARFLPPDYDLLTDYFDPPGAFDIWGQGTMVTVSS
VL: DIHMTQSPFSLSASVGDRVTITCRASQSISGWLAWYQQKVGNAPKLLIYKASSLESGVPSRFSGSGSGTEFTLSISSLQPDDFATYYCQQYNSYPFTFGPGTKVDMK
B2: hcab17 Fab (Fab, V domains shown)
VH: QVQLNQWGAGLLKPSETLSLTCAVYGDAFSGNYWSWIRQPPGKGLQWIGEINHSGNTNYDPSLESRVSISLDTSKNQLSLKLNSVTAADTALYYCARGQRNCSGGNCYSGLWAWGQGTLVTVSS
VL: AIHMTQSPFSLSASVGDRVTITCRASQGIRNDLAWYQHKPGTAPKVLIYAASSLQDGVSSRFSGSGSGTLFTLTISSLQPEDFATYYCLQGYNYPRTFGQGTKVEMK
B3: hcab64 Fab (Fab, V domains shown)
VH: QVQLVQSGAEIQKPGASVKVSCRASGYTYISTSFHWVRQAPGQGLEWMGVIKTDDGSTSDTQKFQGRLRMTWDTSTSTVYMELSSLRSDDTAVYYCVSPRLGHCRRGRCYETLDWGQGSLVTVSS
VL: EIVLTQSPGTLSLSPGERATLSCRASQSVSSSYLAWYQQKPGQAPRLLVYGASTRATGIPDRFSGSGSGTDFTLTISRLEPEDFAVYYCHQYSSSFWTFGQGTKVEIK
B4: hcab55 Fab (Fab, V domains shown)
VH: QVQLVQSGAEIKKPGASVKVSCKASGYTFISNYFHWVRQAPGQGLEWMGIINPSSGSTTYGQKFQGRVTLTSDTSASIVYLELSRLRSEDTAVYYCVSPRIAHCRGGRCYETLDWGQGTLVTVSS
VL: EIVLTQSPVSLSLSPGERATLSCRASQSVSSNYLAWYQLKPGRAPRLLIYGASSRAPGIPDRFSGSGSGTDFTLTISRLEPEDFAVYYCQQYGISSWTFGQGTKVEIK

For this experiment, the target named is 1b09 HCV E2 ectodomain (E2ecto) (Hepatitis C virus genotype 1b, strain …, strain). The experiment in a line: crystal structure.
Turning to B1, the binding result was “binds”.

Take B2: the binding result was “binds”. As for B3, the entry is “binds”; as for B4, “binds”.
